± gives the uncertainty stated by the source.
Experiment: self-splicing fitness, log relative to wild type (ln ratio); higher = more splicing; Tetrahymena group I intron in knt gene, E. coli kanamycin selection, DiMSum; sequences stand for … in CUCUCU…GGAGGGAAAAGUUAUCAGGCAUGCACCUGGUAGCUAGUCUUUAAACCAAUAGAUUGCAUCGGUUUAAAAGGCAAGACCGUCAAAUUGCGGGAAAGGGGUCAACAGCCGUUCAGUACCAAGUCUCAGGGGAAACUUUGAGAUGGCCUUGCAAAGGGUAUGGUAAUAAGCUGACGGACAUGGUCCUAACCACGCAGCCAAGUCCUAAGUCAACAGAUCUUCUGUUGAUAUGGAUGCAGUUCACAGACUAAAUGUCGGUCGGGGAAGAUGUAUUCUUCUCAUAAGAUAUAGUCGGACCUCUCCUUAAUGGGAGCUAGCGGAUGAAGUGAUGCAACACUGGAGCCGCUGGGAACUAAUUUGUAUGCGAAAGUAUAUUGAUUAGUUUUGGAGUACUCGUGGUCG
Outline: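 Pooled colonies went to amplicon sequencing on an Illumina HiSeq 2500 after six replicate transformations. The plates were LB agar with 100 μg/mL carbenicillin, 50 μM IPTG and 0.2% rhamnose, with or without 25 μg/mL kanamycin, incubated overnight at 37°C or 30°C. The E. coli BL21(DE3) library had all eight P1ex-region intron nucleotides randomised, the intron placed in the knt kanamycin-resistance gene on pET-22b(+). DiMSum fitness is the error-weighted combination of replicate fold changes, kanamycin against none, normalised to wild type.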

Sequence	self-splicing fitness (ln) (30 °C)	self-splicing fitness (ln) (37 °C)
GCCUAGCAAUAUUACGACCA	-1.08 ± 0.14	-1.34 ± 0.13
GGUUAGCAAUAUUACGGGCC	-2.52 ± 0.27	-1.47 ± 0.29
GACGAGCAAUAUUACGUUGU	-3.4 ± 0.14	-2.74 ± 0.16
AUCGAGCAAUAUUACGGUCU	-3.03 ± 0.2	-1.77 ± 0.2
CGGGAGCAAUAUUACGCUUA	-2.19 ± 0.21	-2.87 ± 0.43
CCCCAGCAAUAUUACGCGUG	-4.14 ± 0.18	-2.76 ± 0.15
UAGAAGCAAUAUUACGUGAC	-3.33 ± 0.24	-2.28 ± 0.28
GCUUAGCAAUAUUACGUCUU	-1.1 ± 0.1	-0.549 ± 0.12
AUAGAGCAAUAUUACGCAUG	-1.85 ± 0.16	-1.42 ± 0.23
AGACAGCAAUAUUACGACGG	-2.19 ± 0.14	-1.86 ± 0.13
CCAAAGCAAUAUUACGUACC	-3.76 ± 0.37	-2.19 ± 0.32
UUGUAGCAAUAUUACGUCGA	-0.938 ± 0.088	-0.226 ± 0.11
GGCGAGCAAUAUUACGUUUG	-2.31 ± 0.21	-2.78 ± 0.38
GCACAGCAAUAUUACGGUGA	-0.308 ± 0.07	-0.455 ± 0.079
UUGAAGCAAUAUUACGUACG	-0.166 ± 0.053	0.427 ± 0.074
CGUCAGCAAUAUUACGAUCC	-1.62 ± 0.086	-0.418 ± 0.13
CCAGAGCAAUAUUACGACAG	-0.807 ± 0.094	-0.408 ± 0.15
CUCUAGCAAUAUUACGGCUC	-3.83 ± 0.22	-2.09 ± 0.21
UAGGAGCAAUAUUACGUUAU	-4.64 ± 0.22	-2.85 ± 0.15
AAUAAGCAAUAUUACGGGAG	-2.91 ± 0.19	-2.14 ± 0.14
AGGAAGCAAUAUUACGGUAG	-3.37 ± 0.36	-1.6 ± 0.31
UUCCAGCAAUAUUACGACAC	-3.32 ± 0.19	-2.18 ± 0.19
UGUUAGCAAUAUUACGCCCU	-0.0997 ± 0.17	0.532 ± 0.18
UAUGAGCAAUAUUACGUACG	-2.35 ± 0.19	-1.34 ± 0.21
UCUCAGCAAUAUUACGGUCC	-3 ± 0.31	
CGACAGCAAUAUUACGUCAC	-3.14 ± 0.14	-2.19 ± 0.16

Sequence	self-splicing fitness (ln) (30 °C)	self-splicing fitness (ln) (37 °C)
ACGCAGCAAUAUUACGUAUU	-3.49 ± 0.32	-2 ± 0.16
GGGCAGCAAUAUUACGGGAA	-2.67 ± 0.31	-2.7 ± 0.32
CUCAAGCAAUAUUACGCAGU	-3.28 ± 0.18	-2.32 ± 0.22
AUACAGCAAUAUUACGCUUG	-1.35 ± 0.08	-0.94 ± 0.1
CGCAAGCAAUAUUACGACAU	-2.999 ± 0.017	-1.77 ± 0.034
UACGAGCAAUAUUACGGGAG	-3.43 ± 0.22	-2.72 ± 0.39
GUCCAGCAAUAUUACGACCC	-0.218 ± 0.18	0.168 ± 0.21
GCUAAGCAAUAUUACGGCGA	-0.936 ± 0.1	-0.247 ± 0.13
UGGUAGCAAUAUUACGCCGA	-1.43 ± 0.45	-0.492 ± 0.32
GAAUAGCAAUAUUACGCAAU	-2.31 ± 0.11	-0.898 ± 0.15
ACCAAGCAAUAUUACGCGCA	-0.525 ± 0.054	-0.106 ± 0.07
CUUAAGCAAUAUUACGCUCU	-2.77 ± 0.13	-2.81 ± 0.32
UGUAAGCAAUAUUACGGGAU	-3.28 ± 0.32	-2.46 ± 0.29
CCUAAGCAAUAUUACGCUAA		-2.31 ± 0.27
GUGGAGCAAUAUUACGAGUC		-2.24 ± 0.31
AGGCAGCAAUAUUACGAAUC	-2.29 ± 0.29	-2.07 ± 0.24
CGUGAGCAAUAUUACGUUAA	-4 ± 0.31	-3.55 ± 0.3
AUCCAGCAAUAUUACGCCAG	-0.923 ± 0.44	-2.6 ± 0.48
CGUUAGCAAUAUUACGGAGA	-2.64 ± 0.4	-1.53 ± 0.43
GAUAAGCAAUAUUACGAAAU	-1.13 ± 0.13	-1.11 ± 0.15
CACGAGCAAUAUUACGUACA	-3.75 ± 0.37	-2.49 ± 0.24
UCUGAGCAAUAUUACGACUU	-3.11 ± 0.33	
GUAUAGCAAUAUUACGUAUU	-4.14 ± 0.37	-1.44 ± 0.2
UGGGAGCAAUAUUACGAUGG	-2.64 ± 0.18	-2.77 ± 0.48
UCAGAGCAAUAUUACGUUCU	-3.86 ± 0.22	-2.47 ± 0.25
UUUCAGCAAUAUUACGUCCC	-1.43 ± 0.39	-0.811 ± 0.4

Sequence	self-splicing fitness (ln) (30 °C)	self-splicing fitness (ln) (37 °C)
AAGUAGCAAUAUUACGCCGU	-1.94 ± 0.19	-0.462 ± 0.19
CGAAAGCAAUAUUACGUCAC		-2.32 ± 0.32
AGGCAGCAAUAUUACGGCCG	-1.12 ± 0.13	-0.985 ± 0.17
AUAGAGCAAUAUUACGACCG	-2.9 ± 0.27	-1.57 ± 0.43
UGGUAGCAAUAUUACGUGAG	-1.05 ± 0.092	0.0891 ± 0.11
GCUCAGCAAUAUUACGGCCG	-3.86 ± 0.27	-2.15 ± 0.27
UCGAAGCAAUAUUACGAUGU	-1.82 ± 0.067	-0.546 ± 0.085
UCUUAGCAAUAUUACGAUAA	-2.73 ± 0.46	-2.27 ± 0.4
GCCGAGCAAUAUUACGUCAG	-3.33 ± 0.16	-1.87 ± 0.19
AUCUAGCAAUAUUACGAGAU	-2.88 ± 0.26	-2.31 ± 0.34
CGAUAGCAAUAUUACGGUGU	-2.7 ± 0.11	-1.06 ± 0.095
UUUUAGCAAUAUUACGAAAG	-2.72 ± 0.2	-0.437 ± 0.15
CGCUAGCAAUAUUACGAUGC	-4.31 ± 0.46	-2.58 ± 0.36
AUAUAGCAAUAUUACGGAAU	-1.92 ± 0.21	0.227 ± 0.23
UCCCAGCAAUAUUACGCGUC	-3.15 ± 0.19	-1.47 ± 0.18
ACGAAGCAAUAUUACGUUUC	-2.31 ± 0.11	-2.18 ± 0.17
CCGAAGCAAUAUUACGUUUA	-3.96 ± 0.26	-2.95 ± 0.19
GGAUAGCAAUAUUACGUCUG	-0.225 ± 0.061	-0.0327 ± 0.088
UAUGAGCAAUAUUACGGUGG	-1.85 ± 0.22	-2.72 ± 0.37
GCAAAGCAAUAUUACGUUAC	-2.75 ± 0.19	-1.3 ± 0.15
CCCCAGCAAUAUUACGCCAU	-2.14 ± 0.12	-2.32 ± 0.17
GAAUAGCAAUAUUACGGGUG	-3.74 ± 0.15	-1.03 ± 0.095
AACAAGCAAUAUUACGAAGG	-2.77 ± 0.19	-1.95 ± 0.24
CGGGAGCAAUAUUACGGACG	-2 ± 0.14	-2.14 ± 0.23

From the supplement of paper PMC7877785
